Targets include pP53-02; pP53-04; pP53-03; pP53-01.
Common to all, as to experiment: fluorescence polarization

Broadly, the Kd is the constant that tells how readily two partners part at equilibrium.

B1: GST-MDM2 (other)
chain: MCNTNMSVPTDGAVTTSQIPASEQETLVRPKPLLLKLLKSVGAQKDTYTMKEVLFYLGQYIMTKRLYDEKQQHIVYCSNDLLGDLFGVPSFSVKEHRKIYTMIYRNLVVVNQQESSDSGTSVSENRCHLEGGSDQKDLVQELQEEKPSSSHLVSRPSTSSRRRAISETEENSDELSGERQRKRHKSDS
For the molecule B1, the Kd was 766 nM in the assay with pP53-02, 334 nM with pP53-04, 546 nM with pP53-03 and 2800 nM with pP53-01.

(Values after patent US20110028686A1 (published 2011).)
